Patent publication US20100092457A1 (Chugai, published 2010)

B1: anti-DSG3 monoclonal antibody DF151 (antibody)
heavy: EVQLQQSGPELVKPGASVKISCKASGYSFTAYYMHWVKQSPEKCLEWIGQINPSTGGTTYNQKFKAKATLTVDKSSSTAYMQLKSLTSEDSAVYYCARWGDSWGQGTTLTVSSAKTTPPSVYPLAPGCGDTTGSSVTLGCLVKGYFPESVTVTWNSGSLSSSVHTFPALLQSGLYTMSSSVTVPSSTWPSQTVTCSVAHPASSTTVDKKLEPSGPISTINPCPPCKECHKCPAPNLEGGPSVFIFPPNIKDVLMISLTPKVTCVVVDVSEDDPDVQISWFVNNVEVHTAQTQTHREDYNSTIRVVSALPIQHQDWMSGKEFKCKVNNKDLPSPIERTISKIKGLVRAPQVYILPPPAEQLSRKDVSLTCLVVGFNPGDISVEWTSNGHTEENYKDTAPVLDSDGSYFIYSKLDIKTSKWEKTDSFSCNVRHEGLKNYYLKKTISRSPGK
light: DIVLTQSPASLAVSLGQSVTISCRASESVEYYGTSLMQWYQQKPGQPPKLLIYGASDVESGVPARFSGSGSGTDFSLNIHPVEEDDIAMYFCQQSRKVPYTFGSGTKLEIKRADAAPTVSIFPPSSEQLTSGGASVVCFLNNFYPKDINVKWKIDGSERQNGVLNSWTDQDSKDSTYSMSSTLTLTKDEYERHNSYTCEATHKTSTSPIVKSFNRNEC
notes: Mouse IgG2b kappa from hybridoma
B2: DF366 mouse-human chimeric antibody (antibody)
heavy: not shown
light: DIQMTQSPASLSASVGETVTITCRPSENIYNNLAWYQQKQGKSPQLLVYVATNLAEGVPSRFSGSGSGTRFSLKINSLQPEDFGKYYCQHSYGTPWTFGGGTKLEIKRTVAAPSVFIFPPSDEQLKSGTASVVCLLNNFYPREAKVQWKVDNALQSGNSQESVTEQDSKDSTYSLSSTLTLSKADYEKHKVYACEVTHQGLSSPVTKSFNRGEC
notes: made in CHO DG44 cells; also called DF366c
B3: low-fucose DF366 mouse-human chimeric antibody (antibody, human IgG1, kappa)
heavy: not shown
light: B2 light
modifications: low-fucose sugar chain (produced in YB2/0 cells)
notes: differs only in glycosylation (low fucose); also called YB-DF366c
B4: anti-DSG3 monoclonal antibody DF364 (antibody)
heavy: EVQLQQSGTVLARPGASVKMSCKASGYTFASYWIHWVKQRPGQGLEWIGSIYPGNSDTTYNQKFKGKAKLTVVTSASSAYMELSSLTNEDSAVYYCTEPTYYSYDDYYAMDYWGQGTSVTVSSAKTTPPSVYPLAPGSAAQTNSMVTLGCLVKGYFPEPVTVTWNSGSLSSGVHTFPAVLQSDLYTLSSSVTVPSSTWPSQTVTCNVAHPASSTKVDKKIVPRDCGCKPCICTVPEVSSVFIFPPKPKDVLTITLTPKVTCVVVDISKDDPEVQFSWFVDDVEVHTAQTKPREEQFNSTFRSVSELPIMHQDWLNGKEFKCRVNSAAFPAPIEKTISKTKGRPKAPQVYTIPPPKEQMAKDKVSLTCMITDFFPEDITVEWQWNGQPAENYKNTQPIMDTDGSYFVYSKLNVQKSNWEAGNTFTCSVLHEGLHNHHTEKSLSHSPGK
light: EIVLTQSPALMAASPGEKVTITCSVSSSISSSNLHWYQQKSGTSPKPWIYGTSNLASGVPVRFSGSGSGTSYSLTISTMEAEDAATYYCQQWSSYPLTFGAGTKLELKRADAAPTVSIFPPSSEQLTSGGASVVCFLNNFYPKDINVKWKIDGSERQNGVLNSWTDQDSKDSTYSMSSTLTLTKDEYERHNSYTCEATHKTSTSPIVKSFNRNEC
notes: Mouse IgG1 kappa from hybridoma
B5: DF151 mouse-human chimeric antibody (antibody)
heavy: not shown
light: DIVLTQSPASLAVSLGQSVTISCRASESVEYYGTSLMQWYQQKPGQPPKLLIYGASDVESGVPARFSGSGSGTDFSLNIHPVEEDDIAMYFCQQSRKVPYTFGSGTKLEIKRTVAAPSVFIFPPSDEQLKSGTASVVCLLNNFYPREAKVQWKVDNALQSGNSQESVTEQDSKDSTYSLSSTLTLSKADYEKHKVYACEVTHQGLSSPVTKSFNRGEC
notes: made in CHO DG44 cells; also called DF151c
B6: low-fucose DF151 mouse-human chimeric antibody (antibody, human IgG1, kappa)
heavy: not shown
light: B5 light
modifications: low-fucose sugar chain (produced in YB2/0 cells)
notes: differs only in glycosylation (low fucose); also called YB-DF151c
B7: DF364 mouse-human chimeric antibody (antibody)
heavy: not shown
light: EIVLTQSPALMAASPGEKVTITCSVSSSISSSNLHWYQQKSGTSPKPWIYGTSNLASGVPVRFSGSGSGTSYSLTISTMEAEDAATYYCQQWSSYPLTFGAGTKLELKRTVAAPSVFIFPPSDEQLKSGTASVVCLLNNFYPREAKVQWKVDNALQSGNSQESVTEQDSKDSTYSLSSTLTLSKADYEKHKVYACEVTHQGLSSPVTKSFNRGEC
notes: made in CHO DG44 cells; also called DF364c
B8: low-fucose DF364 mouse-human chimeric antibody (antibody, human IgG1, kappa)
heavy: not shown
light: B7 light
modifications: low-fucose sugar chain (produced in YB2/0 cells)
notes: differs only in glycosylation (low fucose); also called YB-DF364c
B9: anti-DSG3 monoclonal antibody DF366 (antibody)
heavy: EVQLQQSGPELVKPGASVKISCKASGYTFTDYNMDWVKQSHGESLEWIGYIYPNNGGSGYNQKFKSKATLTVDKSSSTAYMELHSLTSEDSAVYYCARRDSYYGFDMAWFAYWGQGTLVTVSAAKTTPPSVYPLAPGSAAQTNSMVTLGCLVKGYFPEPVTVTWNSGSLSSGVHTFPAVLQSDLYTLSSSVTVPSSTWPSQTVTCNVAHPASSTKVDKKIVPRDCGCKPCICTVPEVSSVFIFPPKPKDVLTITLTPKVTCVVVDISKDDPEVQFSWFVDDVEVHTAQTKPREEQFNSTFRSVSELPIMHQDWLNGKEFKCRVNSAAFPAPIEKTISKTKGRPKAPQVYTIPPPKEQMAKDKVSLTCMITDFFPEDITVEWQWNGQPAENYKNTQPIMDTDGSYFVYSKLNVQKSNWEAGNTFTCSVLHEGLHNHHTEKSLSHSPGK
light: DIQMTQSPASLSASVGETVTITCRPSENIYNNLAWYQQKQGKSPQLLVYVATNLAEGVPSRFSGSGSGTRFSLKINSLQPEDFGKYYCQHSYGTPWTFGGGTKLEIKRADAAPTVSIFPPSSEQLTSGGASVVCFLNNFYPKDINVKWKIDGSERQNGVLNSWTDQDSKDSTYSMSSTLTLTKDEYERHNSYTCEATHKTSTSPIVKSFNRNEC
notes: as for B4
B10: mouse IgG2a chimeric DF366 antibody (antibody)
heavy: EVQLQQSGPELVKPGASVKISCKASGYTFTDYNMDWVKQSHGESLEWIGYIYPNNGGSGYNQKFKSKATLTVDKSSSTAYMELHSLTSEDSAVYYCARRDSYYGFDMAWFAYWGQGTLVTVSAAKTTAPSVYPLAPVCGDTTGSSVTLGCLVKGYFPEPVTLTWNSGSLSSGVHTFPAVLQSDLYTLSSSVTVTSSTWPSQSITCNVAHPASSTKVDKKIEPRGPTIKPCPPCKCPAPNLLGGPSVFIFPPKIKDVLMISLSPIVTCVVVDVSEDDPDVQISWFVNNVEVHTAQTQTHREDYNSTLRVVSALPIQHQDWMSGKEFKCKVNNKDLPAPIERTISKPKGSVRAPQVYVLPPPEEEMTKKQVTLTCMVTDFMPEDIYVEWTNNGKTELNYKNTEPVLDSDGSYFMYSKLRVEKKNWVERNSYSCSVVHEGLHNHHTTKSFSRTPGK
light: B9 light
notes: made in CHO DG44 cells; also called DF366m

Key:
[1] = molecular target: T1, full-length human DSG3 (Desmoglein 3) protein (human, UniProt P32926 50-999); experiment: hybridoma screening by flow cytometry on CHO cells expressing full-length human DSG3
T1 construct: Full-length protein constantly expressed on transfected cells (DSG3-CHO, DSG3-A549, DSG3-Ba/F3); no signal peptide limits are stated; also called hDSG3; PV antigen
T1 sequence: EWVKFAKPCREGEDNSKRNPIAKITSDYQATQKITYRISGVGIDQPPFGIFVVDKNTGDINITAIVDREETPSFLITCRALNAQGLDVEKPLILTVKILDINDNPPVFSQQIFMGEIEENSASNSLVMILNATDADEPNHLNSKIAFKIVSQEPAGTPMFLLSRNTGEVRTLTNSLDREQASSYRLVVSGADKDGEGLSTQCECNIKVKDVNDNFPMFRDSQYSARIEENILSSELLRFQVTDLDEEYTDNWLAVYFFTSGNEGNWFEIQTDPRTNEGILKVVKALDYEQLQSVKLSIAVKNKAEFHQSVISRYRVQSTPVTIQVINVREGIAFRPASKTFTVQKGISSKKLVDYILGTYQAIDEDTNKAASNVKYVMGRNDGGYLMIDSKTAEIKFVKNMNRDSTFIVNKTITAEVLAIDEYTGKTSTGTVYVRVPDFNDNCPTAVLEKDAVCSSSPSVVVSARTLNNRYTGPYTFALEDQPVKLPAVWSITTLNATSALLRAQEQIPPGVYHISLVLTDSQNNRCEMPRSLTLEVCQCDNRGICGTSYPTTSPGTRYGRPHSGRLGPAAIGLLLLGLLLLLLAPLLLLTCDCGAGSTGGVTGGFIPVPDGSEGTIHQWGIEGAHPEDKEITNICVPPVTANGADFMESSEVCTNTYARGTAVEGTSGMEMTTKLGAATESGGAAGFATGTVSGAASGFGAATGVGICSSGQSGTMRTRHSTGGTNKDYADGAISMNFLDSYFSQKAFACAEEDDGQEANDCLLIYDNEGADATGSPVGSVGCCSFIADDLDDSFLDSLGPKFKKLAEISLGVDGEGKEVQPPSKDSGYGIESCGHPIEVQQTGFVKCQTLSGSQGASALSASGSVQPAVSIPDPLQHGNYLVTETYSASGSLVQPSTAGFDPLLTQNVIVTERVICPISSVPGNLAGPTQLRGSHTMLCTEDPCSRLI
Method: Next, RPMI1640 medium (Invitrogen) was added carefully to dilute PEG 1500, and then PEG 1500 was removed by centrifuging and removing the supernatant. The group of fused cells suspended in RPMI1640 containing 10% FBS was seeded into a 96-well culture plate at 100 μL/well. The following day, RPMI1640 containing 10% FBS, 1×HAT media supplement (SIGMA), and 0.5×BM-Condimed H1 Hybridoma cloning supplement (Roche Diagnostics) (hereinafter referred to as HAT medium) was added at 100 μL/well. On the second or third day, half of the culture solution was replaced with HAT medium, and the culture supernatant from the seventh day was used in the screening in which binding activity to the DSG3 molecule was used as an indicator. The screening was performed by flow cytometric analysis which detects binding to CHO cells that show constant expression of full-length human DSG3. Positive clones obtained by this analysis were monocloned by the limiting dilution method. Specifically, DF120, DF122, DF148, DF151, DF153, DF168, DF331, DF364, and DF366 were established as antibodies that specifically bind to DSG3.
Flow cytometry was used to evaluate the binding of the obtained antibodies to CHO cells that show constant expression of full-length human DSG3. The cells were suspended in FACS Buffer (1% FBS/PBS) at 5×10⁵ cells/mL and dispensed into Multiscreen-HV Filter Plates (Millipore), and the supernatant was removed from this cell suspension solution by centrifugation. After adding to the supernatant-free cells an FACS buffer containing anti-DSG3 monoclonal antibodies which have been diluted to a suitable concentration (3 μg/mL) in the FACS buffer, this was left to stand for 30 minutes on ice to let the cells react with the monoclonal antibodies. After removing the supernatant from this reaction solution by centrifugation, the cells were washed once with FACS buffer. Next, by suspending the cells in a FACS buffer containing FITC-labeled anti-mouse IgG antibody as the secondary antibody, the cells were reacted with the secondary antibody for 30 minutes on ice. […]

[2] = molecular target: T1, full-length human DSG3 (Desmoglein 3) …; experiment: flow cytometry

Binder | binding result [1] | binding result [2]
B1 | binds | –
B2 | – | binds
B3 | – | binds
B4 | binds | –
B5 | – | binds
B6 | – | binds
B7 | – | binds
B8 | – | binds
B9 | binds | –
B10 | – | binds
